According to US10899824B2 (Polichem S.A., priority 2016, dated 2021):

Columns and labels:
[1] = system: HSV-2 MS; assay: Post-HSV entry combination (synergy) assay, combination index; type: cell-based; conditions: 0.5 ug/mL
Method: Results obtained in the double curve assay were then analysed in silico in a ComboSyn analysis (CompuSyn for Drug Combinations and for General Dose-Effect Analysis by Ting-Chao Chou Memorial Sloan-Keltering Cancer Center New York, N.Y. and Nick Martin Massachustts Institute of Technology Cambridge, Mass.) to evaluate the potential synergies between IgGA and ACV, through the calculation of Combination Index (CI) and Dose Reduction Index (DRI).
The combination index (CI) according to Chou 2006 (23) indicates nearly additive activity in the range of 0.9-1.1, synergism under 0.9, strong synergism between 0.1 and 0.3 and very strong synergism under 0.1. Values of CI over 1.1 indicate antagonism. […]
The first step in IgGA/FOS combination activity evaluation has been the assessment of drug susceptibility for the two chosen HSV isolates already used for the Example 2. […] Combination index was calculated as in Example 2 to assess the synergism between IgGA and FOS. […]
The first step in IgGA/PCV combination activity evaluation has been the assessment of drug susceptibility for the two chosen HSV isolates (HSV-1 LV and HSV-2 MS). […] Combination index was calculated as in Example 2 to assess the synergism between IgGA and PCV. […]

[2] = system: HSV infected cells; assay: IIF binding assay of ScFv A; conditions: ScFv format
Method: ScFv gene of IgGA was successfully constructed and cloned into expression vector. ScFv format small scale production of IgGA was performed. The binding activity of ScFv A was evaluated by IIF assays on HSV infected cells.

[3] = system: HSV-2; assay: Cell-to-cell infection inhibition (plaque areas, post-adsorption); type: cell-based; conditions: Fabs 200 ug/mL, IgGs 100 ug/mL
Method: (§1) Post post-adsorption assays have been performed in order to evaluate the contribution of IgGA in inhibiting “cell-to-cell” infection by measuring the plaque areas resulting from infected cells treated or untreated with FabA or IgGA.
(§2) Fabs tested in post-adsorption cell-to-cell infection inhibition assays have also been preliminary used at a concentration of 50 and 200 ug/mL against HSV-1 and HSV-2 tested isolates respectively*.
(§3) IgGs tested in post-adsorption “cell-to-cell” infection inhibition assays have also been preliminary used at a concentration of 25 and 100 ug/mL against HSV-1 and HSV-2 tested isolates respectively*.

[4] = system: HSV-1; assay: as above; type: cell-based; conditions: Fabs 50 ug/mL, IgGs 25 ug/mL
Method: as §1, §2, §3

[5] = system: HSV-2; assay: Post adsorption inhibition of infection (plaque count); type: cell-based; conditions: IgG 100 ug/mL added 30 minutes after infection; 48 h; VERO E6
Method: (§4) Post-adsorption assays have been developed in order to speculate on possible administration of IgGA for the treatment of HSV infection, after the beginning of virus active replication within the host.
(§5) The first step of experimental approaches, involving post-HSV adsorption evaluation of FabA or IgGA, is the infection of VERO E6 cells with a standard amount of HSV not previously treated with the FabA or IgGA.
(§6) FabA or IgGA is added to the infected cells only after 30 minutes from virus infection. The infection is then carried out for 48 h in order to appreciate the HSV lysis plaques on VERO E6 cells. The experimental results have been evaluated by counting the plaques for infected cells receiving (post-HSV infection) FabA or IgGA compared to virus experimental positive control.
(§7) Fabs tested in post-adsorption assays have been used at a concentration of 50 and 200 ug/mL against HSV-1 and HSV-2 tested isolates respectively*.
(§8) IgGs tested in post-adsorption assays have been used at a concentration of 25 and 100 ug/mL against HSV-1 and HSV-2 tested isolates respectively*.

[6] = system: HSV-1; assay: as above; type: cell-based; conditions: IgG 25 ug/mL added 30 minutes after infection; 48 h; VERO E6
Method: as §4, §5, §6, §7, §8

[7] = system: HSV-2 tested isolates; assay: Neutralising activity against clinical isolates (pre-incubation with virus); type: cell-based; conditions: isolates with different susceptibility to Acyclovir; pre-incubation 1 h at 37° C.
Method: (§9) The neutralising activity of FabA or IgGA was evaluated by pre-incubating (1 h at 37° C.) the IgGA with the virus and adding the IgGA/virus-mixture to cell monolayer.

[8] = system: HSV-1 tested isolates; assay: as above; type: cell-based; conditions: isolates with different susceptibility to Acyclovir; pre-incubation 1 h at 37° C.
Method: as §9

[9] = system: HSV-1 HF strain; assay: Emergence of escape mutants under selective pressure; type: cell-based; conditions: selective pressure at 5 and 10 ug/mL; sequential infection rounds
Excerpt: In order to evaluate the presence of escape virus mutants generated under selective pressure of IgGA, HSV-1 infected VERO-E6 cells have been treated with increasing concentrations of Fab A. More in details, VERO cells have been cultured in T25 flasks in the experimental conditions extensively described in the previous reports (“virus propagation techniques”). Cell monolayers have been then infected by HSV-1 HF strain using 50 pfu/mL of cell free virus. […] […] After three days the infected cell media have been collected and centrifuged in order to use medium centrifuged supernatants for new cell infection rounds. […] Five sequential identical infection rounds have been performed in the presence of the two concentrations of IgGA and control IgG above described. […] In order to test the capability of virus cultured in the constant presence of IgGA to escape from IgGA inhibitory activity the cell free supernatants belonging to the final infections in the presence of IgGA have been incubated 1 h at 37° C. in the presence of high IgGA concentration. After pre-incubation the neutralization mix has been used to infect new VERO-E6 cells.
VERO-E6 monolayers were infected with HSV-1 HF strain using 50 pfu/mL of cell free virus. After virus complete adsorption, the infected cells were treated for three days with subinhibitory concentrations of IgGA, namely 0.2 mg/ml and 1 mg/ml. […]

O=C(O)P(=O)(O)O [FOS, Foscarnet]
activity of FOS alone against HSV-2 [1]: nearly ineffective

B1: ScFv A: single chain antibody from VL and VH of Fab A with (Gly3Ser)3 linker and His tag (protein)
scFv: ELTQSPGTLSSSPGHRATLSCKASAPLGSNHMAWYQQKPGQAPRLLIYGASTRATGVPARFTGSGSGTDFTLTISSLQPEDFATYYCQQANSFPRTFGQGTKVEIKGGGSGGGSGGGSLESGGGVVQPGRSLRLSCAASGFTFTTFAMHWVRQAPGKGLEWLAFISYDGSNKYYADSVKGRFTISRDNSKNTLYLQMNSLRAEDTSIYYCAREVWNYADYWGQGALVTVSS
modifications: left off: small tags and cut ends
notes: single chain antibody from VL and VH of Fab A with (Gly3Ser)3 linker and His tag
IIF signal and binding level [2]: high IIF background signal and low binding
recognition of HSV infected cells in IIF [2]: able to recognize HSV infected cells

B2: IgGA: IgG1 Fab Ex2 converted into a full IgG1, identified as IgGA (antibody, V domains shown)
VH: LESGGGVVQPGRSLRLSCAASGFTFTTFAMHWVRQAPGKGLEWLAFISYDGSNKYYADSVKGRFTISRDNSKNTLYLQMNSLRAEDTSIYYCAREVWNYADYWGQGALVTVSS
VL: ELTQSPGTLSSSPGHRATLSCKASAPLGSNHMAWYQQKPGQAPRLLIYGASTRATGVPARFTGSGSGTDFTLTISSLQPEDFATYYCQQANSFPRTFGQGTKVEIK
inhibition of plaque areas (cell-to-cell infection), HSV-2 [3]: even higher than Fab A inhibition activity
inhibition of plaque areas (cell-to-cell infection), HSV-1 [4]: even higher than Fab A inhibition activity
post-adsorption inhibition of new infection events and infectious foci (plaques), HSV-2 [5]: strongly inhibits
post-adsorption inhibition of new infection events and infectious foci (plaques), HSV-1 [6]: strongly inhibits
neutralisation of HSV-2 isolates [7]: potently neutralises
neutralisation of HSV-1 isolates [8]: potently neutralises
generation of escape mutants under selective pressure [9]: no “escape mutants” have been generated
generation of escape mutants under selective pressure (Example 1) [9]: no “escape mutants” were generated
